In publication PMC9122904, “Insights into the client protein release mechanism of the ATP-independent chaperone Spy” (Nature Communications, 2022):
Changes are numbered by the printed parent chain. Numbers in names are those of the source.

Tests used:
Experiment in all cases: BLI; Octet RED96; client biotinylated and loaded on streptavidin sensors; Spy or Spy variant in solution at 0.25, 0.5, 1, 1.5 and 2 μM; 40 mM HEPES, 150 mM NaCl, pH 7.5; Kd calculated as koff/kon
Settings in all cases: both partners purified
Spy_(29-124) R61D R62D = target: T1, Spy_(29-124) R61D R62D (UniProt P77754 52-147, R61D | R62D)
T1 construct: source: E. coli BL21 (DE3), purified (Ni-NTA, cation exchange, SEC); not shown: His6, N-terminal, cleaved; SUMO, N-terminal, cleaved
T1 sequence (looked up): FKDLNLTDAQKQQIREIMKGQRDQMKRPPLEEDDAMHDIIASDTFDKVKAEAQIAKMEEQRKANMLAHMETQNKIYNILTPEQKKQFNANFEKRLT

Spy D26A = target: T2, Spy D26A (UniProt P77754 24-161, D26A)
T2 construct: source: E. coli BL21 (DE3), purified (Ni-NTA, cation exchange, SEC); not shown: His6, N-terminal, cleaved; SUMO, N-terminal, cleaved
T2 sequence (looked up): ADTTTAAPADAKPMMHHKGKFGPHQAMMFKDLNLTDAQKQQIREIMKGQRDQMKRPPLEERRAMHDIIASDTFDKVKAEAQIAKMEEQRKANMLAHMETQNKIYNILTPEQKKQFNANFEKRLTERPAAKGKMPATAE

Spy D26K = target: T3, Spy D26K (UniProt P77754 24-161, D26K)
T3 construct: source: E. coli BL21 (DE3), purified (Ni-NTA, cation exchange, SEC); not shown: His6, N-terminal, cleaved; SUMO, N-terminal, cleaved
T3 sequence (looked up): T2 sequence (looked up) with A26K

Spy D26E = target: T4, Spy D26E (UniProt P77754 24-161, D26E)
T4 construct: source: E. coli BL21 (DE3), purified (Ni-NTA, cation exchange, SEC); not shown: His6, N-terminal, cleaved; SUMO, N-terminal, cleaved
T4 sequence (looked up): T2 sequence (looked up) with A26E

Spy D26R = target: T5, Spy D26R (UniProt P77754 24-161, D26R)
T5 construct: source: E. coli BL21 (DE3), purified (Ni-NTA, cation exchange, SEC); not shown: His6, N-terminal, cleaved; SUMO, N-terminal, cleaved
T5 sequence (looked up): T2 sequence (looked up) with A26R

Spy_(27-127) = target: T6, Spy_(27-127) (UniProt P77754 50-150)
T6 construct: Spy chaperone, residues 27-127; source: E. coli BL21 (DE3), purified (Ni-NTA, cation exchange, SEC); not shown: His6, N-terminal, cleaved; SUMO, N-terminal, cleaved
T6 sequence (looked up): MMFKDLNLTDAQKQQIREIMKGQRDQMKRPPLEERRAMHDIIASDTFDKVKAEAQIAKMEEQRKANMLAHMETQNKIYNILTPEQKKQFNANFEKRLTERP
How it was run: (§1)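 Biolayer interferometry used an Octet RED96: client proteins biotinylated with EZ-link NHS-biotin (1:1 molar ratio) were loaded on streptavidin sensors, dipped into 40 mM HEPES, 150 mM NaCl, pH 7.5 containing Spy protein at 0.25, 0.5, 1, 1.5 and 2 μM, then moved to Spy-free buffer. Wavelength-shift association and dissociation curves were fitted in SigmaPlot 12.0, giving observed association rate and koff. kon came from observed rate versus Spy concentration; Kd was koff/kon.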

Spy_(24-130) = target: T7, Spy_(24-130) (UniProt P77754 47-153)
T7 construct: Spy chaperone, residues 24-130; source: E. coli BL21 (DE3), purified (Ni-NTA, cation exchange, SEC); not shown: His6, N-terminal, cleaved; SUMO, N-terminal, cleaved
T7 sequence (looked up): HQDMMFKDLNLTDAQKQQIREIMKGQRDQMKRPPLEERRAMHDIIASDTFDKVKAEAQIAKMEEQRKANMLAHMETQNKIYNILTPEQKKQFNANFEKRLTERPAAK
How it was run: as §1

Spy_(1-124) = target: T8, Spy_(1-124) (UniProt P77754 24-147)
T8 construct: source: E. coli BL21 (DE3), purified (Ni-NTA, cation exchange, SEC); not shown: His6, N-terminal, cleaved; SUMO, N-terminal, cleaved
T8 sequence (looked up): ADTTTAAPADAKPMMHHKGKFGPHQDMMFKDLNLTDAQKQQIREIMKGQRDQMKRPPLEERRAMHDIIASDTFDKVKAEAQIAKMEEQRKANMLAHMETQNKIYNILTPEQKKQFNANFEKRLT
How it was run: as §1

Spy_(27-124) = target: T9, Spy_(27-124) (UniProt P77754 50-147)
T9 construct: source: E. coli BL21 (DE3), purified (Ni-NTA, cation exchange, SEC); not shown: His6, N-terminal, cleaved; SUMO, N-terminal, cleaved
T9 sequence (looked up): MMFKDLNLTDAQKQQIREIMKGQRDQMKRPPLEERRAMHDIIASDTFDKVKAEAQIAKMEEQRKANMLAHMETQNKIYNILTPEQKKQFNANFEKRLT
How it was run: as §1

- koff (Spy_(29-124) R61D R62D): 0.262 s⁻¹
- kon (Spy D26A): 322000 M⁻¹ s⁻¹
- kon (Spy D26K): 317000 M⁻¹ s⁻¹
- kon (Spy D26E): 306000 M⁻¹ s⁻¹
- kon (Spy D26R): 287000 M⁻¹ s⁻¹
- Kd (Spy_(27-127)): 300 nM
- Kd (Spy_(24-130)): 1460 nM
- Kd (Spy_(1-124)): 930 nM
- Kd (Spy_(27-124)): 283 nM
B1: Im7 H40W L53A I54A (natural protein)
chain: MELKNSISDYTEAEFVQLLKEIEKENVAATDDVLDVLLEWFVKITEHPDGTDAAYYPSDNRDDSPEGIVKEIKEWRAANGKPGFKQG
modifications: biotin (EZ-link NHS-biotin, 1:1 molar ratio of biotin to protein)
notes: Im7 (colicin E7 immunity protein) with H40W L53A I54A; Spy was made with an N-terminal His6-SUMO tag that was cleaved; also called Im7AAW; partially folded client; source: purified by a similar procedure to Spy
